Experimental data published in patent US20150086555A1 (THERACLONE SCIENCES, published 2015).

B1: TCN-538 (3206_O17) (antibody, V domains shown)
VH: QITLKESGPTLVKPTQTLTLTCVFSGFSLSITGVRVGWIRQPPGKALEWLALISWDDEKHYSPSLQSRLTITKDTSKNQVVLTMTNLDPVDTATYYCARSTDRGHVLRYFGWMLPGDAFDVWGQGTMVTVSS
VL: DIVMTQSPDFLPVSLGERATINCKSSQRVLYSSNNKNYLAWYQLKPGQPPKLIIYWASTRESGVPDRFSGSGSGTEFTLTISSLQAEDVAVYYCQQYYSRPYTFGQGTKLEIK
B2: TCN-534 (5249_B02) (antibody, V domains shown)
VH: QVQLVQSGAEVKKPGSSVKVSCRESGGTFNGYTITWVRQAPGQGLEWMGGIIPMMGTVNYAQKLQGRVTITTDYFTKTAYMDLNNLRSEDTAMYYCVKIRYTGQQLLWGQGTLVTVSS
VL: DIQMTQSPSTLSASIGDRVTITCRASQSIASWLAWYQQKPGKAPKLLIYEAVNLESGVPSRFSGSGSGTDFTLTISSLQPDDFATYFCQHYGTISQTFGGGTKVEIK
B3: TCN-540 (5060_F05) (antibody, V domains shown)
VH: QVQLVQSGGGVVQPGRSLRLSCAASGFTFSSYAMHWVRQAPGKGLEWVAIISYDGNDQYYTDSVKGRFTISRDSSKVYLQMHRLRPEDTAVYYCAKEFETSGYFHGSFDYWGQGILVTVSS
VL: QSALTQPASVSGSPGQSITISCTGTSSDVGGYNYVSWYQQHPGKAPKLLIYEVTNWPSGVSNRFSGSKSGNTASLTISGLQAEDEADYYCSSYAGSSTWVFGGGTRVTVL
B4: TCN-536 (5095_N01) (antibody, V domains shown)
VH: QVQLQQWGAGLLKPSETLSLTCAVYGGSFSVSGYYWSWIRQPPGRGLEWIGEISHGGSTNYNPSLKSRVTISVDTTKNQFSLRLSSVTAADTAVYYCARGTDPDTEVYCRVGNCAAFDYWGQGSLVTVSS
VL: EIILAQSPGTLSLSPGERATLSCRASQFVSTRSLAWYQQRPGQAPRLLIYGASSRATGIPDRFSGSGSGTDFTLTISRLEPEDFAVYYCQHYGYSPRYAFGQGSKVEIK
B5: TCN-543 (5081_G23) (antibody, V domains shown)
VH: QVHLVQSGAEVRKPGDSVKVSCKTSGYTFSTYPVAWVRQVPGQGLEWMGWISTYNGNTNFAQNFQGRVTLTTDTTTNTAYMEVRSLKFDDTAVYYCARVEGSYRDFWNNQNRFDPWGQGTLVTVSS
VL: SYVLTQPPSVSVAPGQTARISCGGSNIGGKSVHWYQQKPGQAPVLVVYDDSGRPSGIPERFSGSNSGDTATLTISRVEAGDEADYFCQVWDNFGGVFGTGTKVTVL
B6: TCN-537 (3194_D21) (antibody, V domains shown)
VH: QVQLQQWGSGLLKPSETLSLTCAVYGGSFRDDYWTWIRQPPGKGLEWIGEINHSGRTNYNPSLKSRVTISVDTSLKQFSLKVISVTAADTAVYYCARGTSHVSRYFDWLPPTNWFDPWGQGTQVTVSS
VL: DIVLTQSPGTLSLSPGERATLSCRASQSVSSSYLAWYQQKPGQAPRLVMYGAATRATGIPDRFSGSGSGPDFTLTISRLEPEDFAMYYCQQYGNSPITFGQGTRLEIK
B7: TCN-539 (5056_A08) (antibody, V domains shown)
VH: QVQLVESGGGVVQPGRSLRLSCAASEITFITYAMHWVRQAPGKGLEWVALISDDGSNKFYADSVKGRFTISRDNSKNTLYLQMNSLRAEDTAAYYCAREGVYFDSGTYRGYFDYWGQETLVTVSS
VL: EIVLTQSPATLSLSPGERATLSCRASQSVSSYLAWYQQKPGQAPRLLIYDASNRATGIPARFSGSGSGTDFTLTISSLEPEDFAVYYCQQRSHWPPITFGQGTRLEIK
B8: TCN-504 (3251_K17) (antibody, V domains shown)
VH: QVQLQESGPGLVKPSETLSLTCAVSGVSISNIDFYWGWIRQPPGKGLEWIGNIYYTGITFYNPSLSSRVAISIDTSKNQFSLTLTSVTAADTAMYYCARHYGDSEAINDAFDIWGQGTMLTVSS
VL: EIVMTQSPATLSVSPGERATLSCRASQSVGNSLAWYQQRPGQAPRLLIYGASTRATGIPPRFSGSGSGTEFTLTISSLQTEDFAVYYCQQYINWRPLSFGGGTKVEIK
B9: TCN-535 (5246_P19) (antibody, V domains shown)
VH: QVQLVQSGSEVKKPGTSVKVSCTASGSVFTNYGISWVRQAPGQGLEWMGGIIPLFGAAKYAQKFQGRVTITADESTKTVYMELSRLTSKDTAIYFCAKAPRVYEYYFDQWGQGTPVTVSS
VL: EIVLTQSPGTLSLSPGERATLSCRASQSVSSSQLAWYQQKPGQAPRLIIYGASTRATGIPDRFSGSGSGTDFTLTIGRLEPEDFAVFFCQQYSTSPPTFGQGTKVDFK
B10: TCN-553 (5261_C18) (antibody, V domains shown)
VH: QVQVVQSGTEVKKPGSSVKVSCQTSGGRFMSYAITWVRQAPGQGLEWMGGIVPVFGTANYAQKFQGRVTITTDDSTRTAYMELSSLRSEDTAVYYCGFRYGSGYGFDSWGQGTLVTVSS
VL: EIVLTQSPGTLSLSPGERATLSCRASQSVSSSYLAWYQKKPGQAPRLLIYGASTRATGIPDRFTGSGSGTDFTLSISRLEPEDFAVYYCQHFGTSVFTFGGGTKVEIK
B11: TCN-546 (5089_L08) (antibody, V domains shown)
VH: QVQLQQWGAGLLKPSETLSLTCGVYGGSLSDYYWSWIRQPPGKGLEWIGEINHSGGTNYNPSLKRRVTISVDTSKKQFSLKMNSVTAADTAVYYCARGTDPDTEVYCRAGNCAAFDFWGQGTLVTVSS
VL: EIVLTQSPGTLSLSPGERATLSCRASHFVIGRAVAWYQQKPGQAPRLLIYGASSRATGIPDRFSGSGSGTDFTLTISRLETEDFAVFYCQHYGSSPRYAFGQGTKLEIK
B12: TCN-545 (5082_I15) (antibody, V domains shown)
VH: QVQLQQWGAGLLKPSETLSLSCAVFGGSFSDYYWTWIRQPPGKGLEWIGEIKHSGRTNYNPSLESRVTISVDTSKNQFSLKLSSVTAADTAIYYCARGTDPDTEGYCRSGSCSAFDFWGQGTLVTVSS
VL: EIVLTQSPGTLSLSPGERATLSCRASHFVNYRSLAWYQQTPGQVPRLLIYGASTRATGIPDRFSGSGSGTDFTLTISRLEPEDFAVYFCQQYGGSPRYTFGQGTRLEIK
B13: TCN-556 (5089_K12) (antibody, V domains shown)
VH: QVQLVQSGAEVKKPGASVKVSCKASGYTFIGYDMHWVRQAPGQGLEWMGWINAKRGGTNYAQKFQGRVTMTRDTSISTAYMELNSLRSDDTAVYYCARGVGSRTTIFGVLNPEFDYWGQGTLVTVSS
VL: QSALTQPPSASGSPGQSVTISCTGSSSDVGGYDYVSWYQQHPGKAPKLLIYEVTKRPSGVPDRFSGSKSGNTASLTVSGLQAEDEADYYCSSYAGNYNHVFGPGTKVTVL
B14: TCN-550 (5096_F06) (antibody, V domains shown)
VH: QVQLQESGPGLVKPSETLSLTCTVSGASINSHYWSWIRQPPGKGLEWIGYVYYSGSTTYNPSLKSRVTLSVDTSKNQFSLNLSSVTAADTAFYYCARHPYDVLTGSGDWFDPWGQGTLVTVSS
VL: SYVLTQAPSVSVAPGQTARITCGGNAIGSKKVHWYQHKAGQAPVLVVYDDTDRPSGIPERFSGSNSWSTATLTINRVEAGDEADYYCQVWDFTIDHVVFGGGTKLTVL
B15: TCN-548 (5092_P01) (antibody, V domains shown)
VH: QVQLQESGPGLVKPSETLSLTCTVSSGPMSDYYWSWIRQPPGKGLEWIGHVSVSHGGRTKSNPSVMSRVTISVETSKNQFSLKLTSVTAADTAVYYCARLNYYDRSGYHSPDGPSNNWFDPWGQGTLVTVSS
VL: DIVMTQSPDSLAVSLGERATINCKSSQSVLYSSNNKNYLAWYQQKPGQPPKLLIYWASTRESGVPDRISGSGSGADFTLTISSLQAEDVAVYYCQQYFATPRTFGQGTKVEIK
B16: TCN-523 (5248_A17) (antibody, V domains shown)
VH: QVQLVQSGAEVKKPGSSVKVSCKASGGSFSNYAFSWVRQAPGQGLEWMGGTIPLLGTTNYAQKFQGRVTISADQFTSTAYMELGSLRSEDTAVYYCTRRKMTTAFDSWGQGTLVTVSS
VL: QPVLTQPPSASASLGASVTLTCTLSSAYSNYKVDWYQQRPGKGPRFVMRVGTGGIVGSKGDGIPDRFSVLGSGLNRYLTIKNIQEEDESDYHCGADHGSGSNFVSPYVFGGGTKLTVL
B17: TCN-543 (5081_G23) (antibody, V domains shown)
VH: B5 VH
VL: B5 VL
B18: TCN-552 (5249_I23) (antibody, V domains shown)
VH: QVQVVQSGAEVKKPGSSVRVSCQASGGTFMNYAIIWVRRAPGQGLEWMGGIIPVFPTPNYAQMFQGRVTISTDESRSTSFLELTNLRYEDTAVYYCARRIYHGGNSGFDFWGQGTLVTVSS
VL: EIVLTQSPATLSLSPGERATLSCRASQSVGNYLAWYQQKPGQAPRLLIYDSSNRAPGIPARFSGSGSGTDFTLTISSLAPEDFAVYYCQQRSKWPPMYSFGHGTKLEIK
B19: TCN-544 (5082_A19) (antibody, V domains shown)
VH: QVQLQESGPGLVKPSETLSLTCTVSRGSIGHYFWSWIRQPPGKGLEWIGYISYSGSTKYNPSLRSRVTISVDTSKNQFSLNLNSVTATDTALYYCAREDYDILTGAGPGMEVWGQGTTVTVSS
VL: QSMLTQPPSASGTPGQRVTISCSGSSSNIGSNTVNWFKHLPGTAPKLLIYRNDLRPSGVPDRFSGSKSGTSASLAISGLQSEDEADYYCATWDDSLNGFYVFGTGTKVTVL
B20: TCN-547 (5092_F11) (antibody, V domains shown)
VH: QVQLQESGPGLVKPSQTLSLTCTVSGDSISSVDHYWSWIRQHPVKGLEWIGFMYYSASTYYNPSLKSRVTISTDTSKNQFSLRLSSVTAADTAVYYCARGTCAGDCSLHYYYYGLDVWGQGRTVTVSS
VL: DIQMTQSPSSLSASVGDRVTITCRASQSISSYLNWYQHKPGKAPKVLMYAVSILQSGVPSRFSGSGSGADFTLTISSLQPEDFATYYCQQSYSSPLTFGGGTKVEIK
B21: TCN-549 (5092_P04) (antibody, V domains shown)
VH: QVQLVQSGAEVKKPGASVKVSCKASGYTFTGYYMHWVRQAPGQGLEWMGWINPNSGDTNYAQKFQGRVTMTRDTSITTAYMELSSLRSDDTAVYYCARDSPYSSSWSFFDYWGQGPLVTVSS
VL: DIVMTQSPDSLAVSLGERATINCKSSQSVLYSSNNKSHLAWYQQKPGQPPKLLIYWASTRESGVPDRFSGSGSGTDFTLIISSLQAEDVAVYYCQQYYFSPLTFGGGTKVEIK
B22: TCN-557 (5081_A04) (antibody, V domains shown)
VH: QVQLVQSGAEVKKPGASVKVSCKASGHTFTGYYIHWVRQAPGQGLEWMGWINPDSGATSSAQNFQGRVTMTGDTSSSTAYMELSRLSFDDTAVYYCARVLFTSPFDFWGEGTLVTVSS
VL: QAVVTQEPSLAVSPGGTVTLTCGSSTGAVTRGHYPYWFQQKPGQAPRALIYDSAGNRHSWTPARFSGSLLGGKAALTLSGAQPEDEAEYYCLLSYSGVWVFGGGTKLTVL

What follows are binders tested against hemagglutinin on live influenza A virus, A/California/4/09 H1N1 (Influenza A virus …) (assay: cell-based or functional assay).

Binder	% Neutralization
B1	66%
B2	96.4%
B3	0%
B4	18.8%
B5	0%
B6	71%
B7	0%
B8	0%
B9	97.3%

The binders below were run against hemagglutinin (HA) of influenza A/Japan/305/57 (H2N2) on whole virions (Influenza A virus A/Japan/305/1957(H2N2), UniProt P03451 16-562) (assay: ELISA; BCC supernatant on coated inactivated whole virions).

Binder	ELISA virus binding (OD450)
B10	2.54 OD450
B11	0.06 OD450
B12	0.06 OD450
B13	2.41 OD450
B14	0.06 OD450
B15	0.09 OD450
B16	1.62 OD450
B17	3.62 OD450
B18	0.71 OD450
B19	0.07 OD450
B20	0.07 OD450
B21	0.08 OD450
B22	2.7 OD450
